Measured values taken from the supplement of paper PMC12764529.
± gives the half width of the 95% confidence interval.

Legend:
[1] = folding stability dG unfold from trypsin proteolysis; higher = more stable
Outline: (§1)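 Mini-proteins designed to be under 80 residues and free of cysteine were carried in a PA-tagged cDNA display construct and digested with trypsin and with chymotrypsin. Each protease was applied at 11 threefold-diluted concentrations, alongside a no-protease condition, before sequencing. K50 came from Bayesian fitting of the sequencing counts, and unfolding free energy was obtained by comparing it with a sequence-predicted unfolded-state K50 and a shared folded-state K50, for each protease separately or for both together. Designs were retained only if their AlphaFold2 dimer inter-PAE exceeded 15.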

[2] = folding stability dG unfold from chymotrypsin proteolysis; higher = more stable
Outline: as §1

[3] = folding stability dG unfold (combined trypsin and chymotrypsin); higher = more stable
Outline: as §1

Row | Sequence | folding stability dG unfold [1] | folding stability dG unfold [2] | folding stability dG unfold [3]
1 | SAGEREELLERAKELARKLAEELGVEVEVTVTVEERDDSVTITVTVTVRNEDGSTHTFTFTFTLKKEDLSAG [r5_609_TrROS_Hall] | 3.83 ± 0.14 kcal/mol | 5.55 ± 0.2 kcal/mol | 5.43 ± 0.13 kcal/mol
2 | SAGEVAPEEIRKIAEEIAKKLGLKNVKVEVSRDEETGEITVKIEVDIPESKKEKKEELEKAIKEKLGLKSAG [r5_9_JUSTAS] | 1.97 ± 0.084 kcal/mol | 2.96 ± 0.094 kcal/mol | 2.7 ± 0.17 kcal/mol
3 | SAGFDWRTVKFPISPELRDKLKEDGFEIVGTSPNYITITVPVVPPPSPEELEEAEKEGMTWEEARDKASAGG [r19_115_TrROS] | -0.0911 ± 0.091 kcal/mol | -0.652 ± 0.82 kcal/mol | -0.0214 ± 0.26 kcal/mol
4 | SAGFEFPPGQEIEFKVQYTSPMPNPDGGWGPVTETYEITIEIVPVPPIPFKDPAQAEELRQKGLPPDDLSAG [r5_624_TrROS] | 0.546 ± 0.06 kcal/mol | 1.44 ± 0.041 kcal/mol | 1.23 ± 0.14 kcal/mol
5 | SAGFKIVDVEPTDGRLEITIPIDKPGDALMFMVPFPNAKITPDPNGKITITIPPGGWYMIMIRLKKDASAGG [r19_227_TrROS] | 2.33 ± 0.037 kcal/mol | 2.67 ± 0.091 kcal/mol | 2.6 ± 0.14 kcal/mol
6 | SAGFVPGKLKAVDPNGNEIDVIEIEELPNGKVIAKGKNKTNGFPYIATYDPVSGKVYIILPNGKVIEIGSAG [r5_809_TrMRF] | 0.867 ± 0.074 kcal/mol | 1.82 ± 0.12 kcal/mol | 1.55 ± 0.13 kcal/mol
7 | SAGGAEEKIREIAEKLGVKEVLSADEAEKLPPEYPKRIAVVPRPDGSVLVIVRLENGEVLVIEFPVDSAGGS [r16_686_TrMRF] | 1.45 ± 0.044 kcal/mol | 2.49 ± 0.035 kcal/mol | 2.15 ± 0.086 kcal/mol
8 | SAGGAFAVVDAGDKVITITVYNPDGELVAPAEIPVLDPETGESDALNIPLEELEKLAGVPIELEPAGSAGGS [r16_778_TrMRF] | 0.977 ± 0.059 kcal/mol | 1 ± 0.025 kcal/mol | 1.03 ± 0.1 kcal/mol
9 | SAGGAHEMEWKHEYELPPYRLKVELEWYYDPDGNPQPSIETIEIRPVPPPTIDAEDLPPEQAKENGIASAGG [r13_964_TrROS] | 1.13 ± 0.11 kcal/mol | 1.23 ± 0.087 kcal/mol | 1.08 ± 0.38 kcal/mol
10 | SAGGAIELPDLGEEEAIETLKKLAEEGIKNPVGVIRTPTKPLVITYDPETNTVTITLPDGTILTLVVSAGGS [r16_481_JUSTAS] | 0.755 ± 0.091 kcal/mol | 1.83 ± 0.028 kcal/mol | 1.52 ± 0.11 kcal/mol
11 | SAGGAKELFEAIPGAEAEYDPETGTLRVRFEFPDYTVLVEIPTDKETGEVLGVRVYVIDKDGVPHEIDLSAG [r5_367_TrMRF] | 3.26 ± 0.24 kcal/mol | 4.81 ± 0.15 kcal/mol | 4.52 ± 0.23 kcal/mol
12 | SAGGALENAPITVNVTITITLKDEKGNTPVITIPVTATVTSQAEADALVNATAAALEAALGATVTVASAGGS [r8_149_JUSTAS] | 1.65 ± 0.12 kcal/mol | 2.04 ± 0.14 kcal/mol | 1.95 ± 0.096 kcal/mol
13 | SAGGAMSSPVGTVTLTSPAGETVTITVYPGKTEVTTRPPDGSVTVTSLADKSVEEVIAELKAEGYEVLSSAG [r5_613_JUSTAS] | 4 ± 0.18 kcal/mol | 2.99 ± 0.03 kcal/mol | 3.25 ± 0.039 kcal/mol
14 | SAGGAPIEAAPDEEITLTFTLTVRFRGPDGAEGTATFRLTVPVKVEPVPPVPEPRVFRLPDGSEVTLGSAGG [r13_401_TrMRF] | 1.48 ± 0.057 kcal/mol | 1.66 ± 0.12 kcal/mol | 1.64 ± 0.12 kcal/mol
15 | SAGGAPLPLPPDVPVTLTFTEVTFSLNESGETGYTVSTTTVPVPVEPVPPVPLPVLVVWPDGSAVALLSAGG [r13_401_JUSTAS] | 1.3 ± 0.067 kcal/mol | 2.23 ± 0.051 kcal/mol | 1.89 ± 0.059 kcal/mol
16 | SAGGAPLSSSEEVEALLKEGGAEFVSKTSVTITEPGVPVTVNVYTIRVKDPSSDKWTLVEVPSSLLSSAGGS [r16_271_JUSTAS] | 0.192 ± 0.12 kcal/mol | 0.429 ± 0.2 kcal/mol | 0.409 ± 0.15 kcal/mol
17 | SAGGAPVGKFKFELNFPELGENVRSVEATVDPVKGTVTVNFELPGSGKPLTLTVPVKLVSPDNPELFSAGGS [r8_193_TrMRF] | 0.37 ± 0.059 kcal/mol | 0.759 ± 0.12 kcal/mol | 0.613 ± 0.082 kcal/mol
18 | SAGGASVDRELTDPVTGDKIEVTITRLPDGSWLIEVTVTDAEGKTTKYPKTFPPGSYTPEDTIDFTKDSAGG [r13_959_JUSTAS] | 1.92 ± 0.2 kcal/mol | 2.14 ± 0.12 kcal/mol | 2.1 ± 0.16 kcal/mol

Row | Sequence | folding stability dG unfold [1] | folding stability dG unfold [2] | folding stability dG unfold [3]
19 | SAGGATAVIADFPLPEGTLRVAVVKKDDKPYVFVFPSGISAEELKKILEEKLGVDIKKVEVKTVSTADESAG [r5_181_TrMRF] | 1.11 ± 0.053 kcal/mol | 2.04 ± 0.022 kcal/mol | 1.7 ± 0.093 kcal/mol
20 | SAGGATITLEPGTFTIEFPENELVIPVPVPEERPDVSPEEAAREIVEELREKYGLPPPEDLTVELAPSAGGS [r8_402_JUSTAS] | 0.299 ± 0.13 kcal/mol | 0.184 ± 0.27 kcal/mol | 0.273 ± 0.22 kcal/mol
21 | SAGGATVTVTEYPLPTGTLYRVTVTVGSKTTTFTVPPGVSLEEIKEIVEKEVGVDLTTVTTTTVSTAAASAG [r5_181_JUSTAS] | 3.06 ± 0.14 kcal/mol | 3.83 ± 0.062 kcal/mol | 3.56 ± 0.14 kcal/mol
22 | SAGGAVELRIVVRRTRPDPLTGRPVEEELTLTVPVDLDPERGVSAAEVARALAAALPDEVREVRAEPGSAGG [r13_335_TrMRF] | 0.51 ± 0.17 kcal/mol | 0.705 ± 0.08 kcal/mol | 0.632 ± 0.12 kcal/mol
23 | SAGGAVLTTEDPEKISLTFYSPEGAVLGSEEIEVEPPEIVLTNVPPEEAAAIKKENPDVPISLNPALGSAGG [r13_235_JUSTAS] | 0.956 ± 0.03 kcal/mol | 0.456 ± 0.029 kcal/mol | 0.685 ± 0.071 kcal/mol
24 | SAGGDEIVDRIKQAFHNFGYPVRIDDISPPNGKIYIRISPAMRENMKPAIIEIPFPGIKDITIEMWPSAGGS [r8_318_TrROS] | 1.25 ± 0.14 kcal/mol | 1.49 ± 0.14 kcal/mol | 1.53 ± 0.17 kcal/mol
25 | SAGGDIKILSIQFMPPGWIMIVAEIPLENGEKWHISIMIRITPEARNHPPGQEYEFRIDINISIVPRSAGGS [r16_787_TrROS] | 3.5 ± 0.26 kcal/mol | 4.91 ± 0.41 kcal/mol | 4.5 ± 0.32 kcal/mol
26 | SAGGDLLKELARELGFNVEIERDPDDGTIRITIRPPEGHYVTITIKIDYDPENGKLKLEIDEIKVSPPSAGG [r13_936_TrROS] | 3.68 ± 0.17 kcal/mol | 3.63 ± 0.14 kcal/mol | 3.7 ± 0.17 kcal/mol
27 | SAGGDMYFVTVEIWRPREPDPDGEWKWEPIPITFPFDPDQAEDFAKEIINILQKDGYHVKIKVIPMPSAGGS [r8_10_TrROS] | 2.56 ± 0.1 kcal/mol | 3.75 ± 0.28 kcal/mol | 3.17 ± 0.43 kcal/mol
28 | SAGGDPPDIYVQIEHKNGKTRTIPFDNMSIENIAEELRDHNYDEVKISVFRMGKPIETFKIKIPPGDSAGGS [r16_700_TrROS] | 3.7 ± 0.27 kcal/mol | 2.95 ± 0.15 kcal/mol | 3.08 ± 0.52 kcal/mol
29 | SAGGDTFLMLHPHPVKDNGKDKPYYHIMVMKITEVEPDNGKPRLKMEMKMIHIPADDPDALKEAGIPISAGG [r13_670_TrROS] | 1.81 ± 0.1 kcal/mol | 1.52 ± 0.21 kcal/mol | 1.77 ± 0.16 kcal/mol
30 | SAGGDTIMIPIRGKGSLEQAKEWAKEIAREFYREGWKNIKISVWVYDKENGEPVYRKEAEIPIKPGDSAGGS [r8_33_TrROS] | 1.63 ± 0.11 kcal/mol | 2.14 ± 0.18 kcal/mol | 1.94 ± 0.22 kcal/mol
31 | SAGGDVKEFDSPEDLNKALPALKNGKEVHIRVEMRMPQPDPDGEPRQYPMEFWYTIKLKNGELEIEPISAGG [r13_835_TrROS] | 0.593 ± 0.071 kcal/mol | 0.988 ± 0.091 kcal/mol | 0.827 ± 0.07 kcal/mol
32 | SAGGDWRPVEFTIKILIPKGMTADELIEEIKEIARNLGLTIKPISVEVYPVPNKYYVEINVEIWIPPNSAGG [r13_351_TrROS] | 2.57 ± 0.14 kcal/mol | 4.54 ± 0.19 kcal/mol | 4.17 ± 0.33 kcal/mol
33 | SAGGDWRTITFNFEVDVPPGQTPEQLIEKAEEIVEELARMFPDVKIEVTDIEVDEDKVYIDVEIRVPDSAGG [r13_805_TrROS] | 2.6 ± 0.17 kcal/mol | 3.45 ± 0.097 kcal/mol | 3.22 ± 0.16 kcal/mol
34 | SAGGDYWVFKIEITHRNPNGEPEKWDIFIWFDPDDPDMPAKELADWIAKYLAPNNGYEVKIEEIYPVSAGGS [r8_101_TrROS] | 3.25 ± 0.15 kcal/mol | 5 ± 0.1 kcal/mol | 4.7 ± 0.31 kcal/mol
35 | SAGGEDELRPITPEELKALFDRLAAAHGLESEILEVEEPEDVVIVTARIRHGDTVLEVTVAFPVAKDPSAGG [r13_652_TrMRF] | 2.65 ± 0.14 kcal/mol | 2.97 ± 0.1 kcal/mol | 2.91 ± 0.15 kcal/mol
36 | SAGGEDGKWREQTFTIENPEDGKKAKIEIEYNPENGYASIEFPGNGKKIDVPFKSLEDILDAIKKIGISAGG [r13_439_TrROS] | -0.02 ± 0.074 kcal/mol | 0.0872 ± 0.16 kcal/mol | 0.0961 ± 0.12 kcal/mol
